Each substance was assayed against T1, GC-C (Rattus norvegicus, UniProt P23897).
T1 construct: expressed in transfected cells; host or cells: COS-7
T1 sequence (P23897 23-1072): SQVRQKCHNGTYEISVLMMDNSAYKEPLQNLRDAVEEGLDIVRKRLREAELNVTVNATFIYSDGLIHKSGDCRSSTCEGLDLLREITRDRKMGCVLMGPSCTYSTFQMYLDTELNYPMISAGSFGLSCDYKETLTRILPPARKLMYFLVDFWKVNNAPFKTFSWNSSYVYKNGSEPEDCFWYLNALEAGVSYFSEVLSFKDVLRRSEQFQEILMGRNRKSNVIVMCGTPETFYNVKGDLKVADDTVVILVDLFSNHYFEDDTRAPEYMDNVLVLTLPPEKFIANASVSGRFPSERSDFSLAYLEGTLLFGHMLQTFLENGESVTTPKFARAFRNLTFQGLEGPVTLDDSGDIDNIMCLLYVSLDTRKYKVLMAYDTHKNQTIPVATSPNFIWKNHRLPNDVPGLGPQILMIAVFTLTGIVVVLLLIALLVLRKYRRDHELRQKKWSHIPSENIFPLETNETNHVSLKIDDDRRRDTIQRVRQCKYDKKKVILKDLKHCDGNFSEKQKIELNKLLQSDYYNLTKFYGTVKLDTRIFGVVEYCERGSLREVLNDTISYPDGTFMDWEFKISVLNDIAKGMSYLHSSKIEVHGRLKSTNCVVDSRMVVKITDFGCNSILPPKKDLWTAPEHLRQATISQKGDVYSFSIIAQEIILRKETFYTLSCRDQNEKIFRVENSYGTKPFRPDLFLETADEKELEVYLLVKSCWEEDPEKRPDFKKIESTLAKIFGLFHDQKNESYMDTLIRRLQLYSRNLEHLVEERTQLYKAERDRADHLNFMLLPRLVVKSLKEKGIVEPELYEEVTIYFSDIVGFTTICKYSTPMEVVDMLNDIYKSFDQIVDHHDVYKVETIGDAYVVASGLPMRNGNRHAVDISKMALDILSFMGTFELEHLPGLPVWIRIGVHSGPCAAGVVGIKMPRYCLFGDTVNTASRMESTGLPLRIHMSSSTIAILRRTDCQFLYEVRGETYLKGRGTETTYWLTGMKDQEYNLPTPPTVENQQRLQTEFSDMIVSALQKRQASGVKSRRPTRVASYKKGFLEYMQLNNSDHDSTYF
Type: cell-based
C-type natriuretic peptide was tested, and the “cyclic GMP levels after stimulation of transfected cells (in words)” value (“cyclic GMP levels after stimulation” below) was “did not increase cyclic GMP levels above background” and the “stimulation of GC-C (in words)” value was “failed to stimulate”. With atrial natriuretic peptide the “cyclic GMP levels after stimulation” value was “did not increase cyclic GMP levels above background” and the “stimulation of GC-C (in words)” value was “failed to stimulate”. brain natriuretic peptide was tested, and the “cyclic GMP levels after stimulation” value was “did not increase cyclic GMP levels above background” and the “stimulation of GC-C (in words)” value was “failed to stimulate”.
